For one assay, the target named is frem2_human FREM2 (UniProt Q5SZK8).
Another assay has as its target frem1_human FREM1 (UniProt Q5H8C1).

Consider four substances from IntAct's records for PubMed 29688405.

UniProt Q5SZK8, sequence (Q5SZK8 whole entry): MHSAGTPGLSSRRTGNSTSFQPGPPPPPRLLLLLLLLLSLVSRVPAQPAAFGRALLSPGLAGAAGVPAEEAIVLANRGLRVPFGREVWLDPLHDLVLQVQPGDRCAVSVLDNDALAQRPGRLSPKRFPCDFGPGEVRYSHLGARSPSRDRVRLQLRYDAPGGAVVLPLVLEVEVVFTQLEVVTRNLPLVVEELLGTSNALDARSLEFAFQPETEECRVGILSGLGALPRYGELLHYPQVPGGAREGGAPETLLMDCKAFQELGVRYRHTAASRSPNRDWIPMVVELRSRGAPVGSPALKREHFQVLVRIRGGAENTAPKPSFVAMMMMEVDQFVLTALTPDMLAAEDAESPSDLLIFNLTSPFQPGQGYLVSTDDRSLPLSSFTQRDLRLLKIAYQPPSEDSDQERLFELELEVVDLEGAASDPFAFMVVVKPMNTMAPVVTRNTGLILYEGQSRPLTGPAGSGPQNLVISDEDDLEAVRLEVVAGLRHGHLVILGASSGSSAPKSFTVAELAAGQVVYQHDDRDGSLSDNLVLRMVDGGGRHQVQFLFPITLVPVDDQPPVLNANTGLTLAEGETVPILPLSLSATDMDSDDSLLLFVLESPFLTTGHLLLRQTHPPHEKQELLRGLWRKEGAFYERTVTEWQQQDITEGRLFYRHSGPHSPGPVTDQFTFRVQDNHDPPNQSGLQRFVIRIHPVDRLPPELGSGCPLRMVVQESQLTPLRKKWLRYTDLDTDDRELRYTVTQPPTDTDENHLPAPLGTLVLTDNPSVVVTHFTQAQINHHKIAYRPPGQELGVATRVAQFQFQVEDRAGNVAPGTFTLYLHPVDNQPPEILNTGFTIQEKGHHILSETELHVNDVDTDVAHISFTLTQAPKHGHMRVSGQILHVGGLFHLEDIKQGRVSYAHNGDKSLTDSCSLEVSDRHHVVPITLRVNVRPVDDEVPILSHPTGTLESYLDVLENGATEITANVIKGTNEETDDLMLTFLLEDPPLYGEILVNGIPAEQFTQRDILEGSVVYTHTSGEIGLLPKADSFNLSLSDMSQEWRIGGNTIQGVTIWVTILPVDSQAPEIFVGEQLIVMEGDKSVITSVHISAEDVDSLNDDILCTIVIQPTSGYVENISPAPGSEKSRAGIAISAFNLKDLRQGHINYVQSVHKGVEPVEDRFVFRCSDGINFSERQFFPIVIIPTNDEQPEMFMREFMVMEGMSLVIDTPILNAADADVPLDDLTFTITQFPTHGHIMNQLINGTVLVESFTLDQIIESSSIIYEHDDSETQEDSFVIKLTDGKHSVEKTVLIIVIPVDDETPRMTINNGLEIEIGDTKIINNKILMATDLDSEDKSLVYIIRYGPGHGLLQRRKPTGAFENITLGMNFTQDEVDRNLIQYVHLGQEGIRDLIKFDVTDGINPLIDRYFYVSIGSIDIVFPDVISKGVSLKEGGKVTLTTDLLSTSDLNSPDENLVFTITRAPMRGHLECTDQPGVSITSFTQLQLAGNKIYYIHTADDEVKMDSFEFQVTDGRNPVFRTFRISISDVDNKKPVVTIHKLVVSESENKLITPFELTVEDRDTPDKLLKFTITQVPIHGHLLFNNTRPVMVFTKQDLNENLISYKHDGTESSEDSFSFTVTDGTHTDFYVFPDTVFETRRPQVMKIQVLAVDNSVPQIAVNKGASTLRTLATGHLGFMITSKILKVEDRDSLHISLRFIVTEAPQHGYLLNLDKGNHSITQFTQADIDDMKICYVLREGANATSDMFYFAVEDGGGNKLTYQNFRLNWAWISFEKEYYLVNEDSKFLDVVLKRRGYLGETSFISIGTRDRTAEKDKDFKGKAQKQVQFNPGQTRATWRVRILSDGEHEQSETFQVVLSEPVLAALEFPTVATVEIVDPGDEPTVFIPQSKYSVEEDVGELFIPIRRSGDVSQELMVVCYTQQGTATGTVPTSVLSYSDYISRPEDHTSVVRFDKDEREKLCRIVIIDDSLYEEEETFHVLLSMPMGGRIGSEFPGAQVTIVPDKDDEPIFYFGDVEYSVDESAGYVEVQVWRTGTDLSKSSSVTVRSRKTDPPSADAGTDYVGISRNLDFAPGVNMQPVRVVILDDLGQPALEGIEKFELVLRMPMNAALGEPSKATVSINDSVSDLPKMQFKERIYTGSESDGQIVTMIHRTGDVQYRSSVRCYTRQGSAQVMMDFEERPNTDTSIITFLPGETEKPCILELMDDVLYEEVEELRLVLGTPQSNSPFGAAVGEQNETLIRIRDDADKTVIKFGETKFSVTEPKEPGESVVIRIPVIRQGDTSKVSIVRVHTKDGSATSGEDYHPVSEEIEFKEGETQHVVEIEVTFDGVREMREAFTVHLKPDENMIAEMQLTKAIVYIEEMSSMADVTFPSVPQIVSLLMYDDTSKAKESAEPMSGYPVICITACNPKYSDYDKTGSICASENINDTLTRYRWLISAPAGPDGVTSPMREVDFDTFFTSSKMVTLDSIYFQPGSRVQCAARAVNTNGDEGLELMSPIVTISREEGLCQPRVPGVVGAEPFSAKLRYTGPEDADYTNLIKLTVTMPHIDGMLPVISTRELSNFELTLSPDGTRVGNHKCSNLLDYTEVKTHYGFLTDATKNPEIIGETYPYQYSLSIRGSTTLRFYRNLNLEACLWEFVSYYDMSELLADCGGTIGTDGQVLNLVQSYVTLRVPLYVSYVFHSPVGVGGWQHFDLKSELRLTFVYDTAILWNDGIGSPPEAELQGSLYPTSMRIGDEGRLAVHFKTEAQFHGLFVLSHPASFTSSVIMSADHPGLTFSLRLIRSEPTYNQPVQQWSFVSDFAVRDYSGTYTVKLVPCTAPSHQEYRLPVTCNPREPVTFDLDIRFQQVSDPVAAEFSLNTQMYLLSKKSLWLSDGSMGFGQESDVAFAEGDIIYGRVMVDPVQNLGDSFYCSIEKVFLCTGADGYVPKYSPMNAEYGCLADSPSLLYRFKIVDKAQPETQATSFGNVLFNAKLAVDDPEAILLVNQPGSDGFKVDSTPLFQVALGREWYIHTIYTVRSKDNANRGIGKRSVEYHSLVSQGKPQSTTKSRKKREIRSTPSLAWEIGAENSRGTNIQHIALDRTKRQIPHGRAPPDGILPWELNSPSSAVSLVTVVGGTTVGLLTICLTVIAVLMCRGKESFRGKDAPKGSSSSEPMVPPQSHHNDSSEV

As for “FRAS1-related extracellular matrix protein 1 (Homo sapiens), Q5H8C1 R649W”, the “effect of a mutation on the interaction” value with frem2_human FREM2 is listed as “disrupting interaction strength”. For the substance “FRAS1-related extracellular matrix protein 2 (Homo sapiens), Q5SZK8 E1972K”, the “effect of a mutation on the interaction” value with frem1_human FREM1 is “disrupting interaction strength”.

In the case of “FRAS1-related extracellular matrix protein 1 (Homo sapiens), Q5H8C1 L1324R”, the “effect of a mutation on the interaction” value with frem2_human FREM2 is “disrupting interaction strength”. For the substance “FRAS1-related extracellular matrix protein 2 (Homo sapiens), Q5SZK8 R2167W”, the “effect of a mutation on the interaction” value with frem1_human FREM1 is recorded as “decreasing interaction strength”.
